Measured values as given in patent publication US10597674B2, “HPPD variants and methods of use” (BASF Agricultural Solutions Seed, US LLC, priority 2015, dated 2020).

Tests used:
[1] = test system: transgenic T1 soybean events; test: Field trials of T1 soybean events, leaf damage eight days after application; assay type: in vivo
Method: Soybean plants expressing an HPPD inhibitor tolerant polypeptide of the present invention alone, or along with a gene conferring tolerance to glyphosate and/or a gene conferring tolerance to glufosinate or having a “plant expression cassette”, which includes only an HPPD inhibitor tolerant polypeptide of the present invention, were tested for tolerance to different HPPD inhibitor herbicide chemical classes. The transgenic plants were routinely analyzed for the expression and presence of the transgenes using the ELISA protein detection method (see detailed description under item D and H). Only plants recovering in the selection media and having a detectable HPPD transgene protein expression were regenerated, transferred to the greenhouse and used at V2-V4 growth stage for the HPPD inhibitor herbicide tolerance analysis of the T0 soybean events in the greenhouse (Example 6). The chemical formulation with HPPD inhibitor herbicides was supplemented with ammonium sulfate and methyl ester rapeseed oil. Herbicide tolerance evaluation was taken 5-21 days after spraying. The best performing independent T0 soybean events were selfed to produce T1 soybean seeds. In the field trails, the advanced T1 soybean seeds were planted and treated with either 210 g/ha of isoxaflutole or 150 g/ha of Cmpd.
In Table 10, the frequency of the soybean events showing a good tolerance, i.e. equal or less than 15% damage of the total leaf area are summarized

[2] = test system: HPPD polypeptides (wild-type SEQ ID NO:1 and mutants); settings: different HPPD inhibitor herbicide chemical classes
[3] = test system: E. coli cells expressing an HPPD polypeptide; test: Brown Color Assay on solid LB-agar, visual score of brown pigment; assay type: cell-based; design: key to brown pigment formation: +++: a dark brown coloring as seen for E. coli cells expressing one of the respective mutant HPPD polypeptide without inhibitor; ++: medium brown pigmentation; +: light brown pigmentation; 0: no brown pigmentation development was detected on the LB agar plates
Method: Mutant HPPD polypeptides were analyzed using a brown color assay (WO2014/043435). Bacterial cells expressing the mutant HPPD polypeptide according to the invention were assayed in 96 well format for HPPD inhibitor tolerance by spotting on solid media containing LB-agar, selection agent for the expression vector pSE420(RI)NX (WO2014/043435), 5 mM tyrosine (Sigma-Aldrich, St. Louis, USA), 42 mM succinate (Sigma-Aldrich, St. Louis, USA) and six different concentrations of the HPPD inhibitor herbicide Cmpd. 1 (0-500 μM). In the brown color assay, an overnight culture of the E. coli cells expressing one of the respective mutant HPPD polypeptides were diluted to an OD600 of 1 and 10 μl extract was spotted in triplicates on plates containing 0, 25, 50, 100, 250, or 500 μM of Cmpd. 1. Plates were covered with airpore tape and incubated at 30 degrees C. After 24 hours, the cells were kept in darkness at room temperature and after 7 days the brown pigment formation was scored visually. In the presence of an HPPD inhibitor herbicide, this pigment formation is inhibited and the color of the agar plate will not alter, unless an HPPD inhibitor herbicide tolerant HPPD polypeptide is expressed and active. […] The “++” and “+” scores a medium and light brown pigmentation, respectively, and the “0” means that no brown pigmentation development was detected on the LB agar plates.

[4] = test system: E. coli cells expressing an HPPD polypeptide; test: Brown color bioassay in liquid culture, residual brown color formation (BCF), OD440 after 96 hours; assay type: cell-based; settings: Cmpd. 1 1000 μM, 96 hours
In short: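 E. coli expressing HPPD variants were grown at 30 degrees Celsius from OD600 0.3-0.5 in LB with 5 mM HPP, with or without herbicide (e.g. Cmpd. 1, 1000 μM). After 96 hours, supernatant OD440 was measured; residual brown colour formation compares pigment with and without inhibitor.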

[5] = test system: transgenic soybean T0 events; test: Greenhouse spray test of T0 soybean events, herbicide tolerance rating 0-3; assay type: in vivo; settings: Cmpd. 1 300 g AI/ha, five days
Method: Tolerant green shoots were transferred to rooting media or grafted. Rooted plantlets were transferred to the greenhouse after an acclimation period. Plants containing the transgene were then sprayed with HPPD inhibitor herbicides, as for example with mesotrione at a rate of 300-600 g AI/ha, or with Cmpd. […] Five to ten days after the application, the symptoms due to the application of the herbicide were evaluated and compared to the symptoms observed on wild-type plants under the same conditions.
For example, T0 soybean plants having a “plant expression cassette”, which includes an HPPD inhibitor tolerant HPPD polypeptide of the present invention, were tested towards the tolerance of Cmpd. 1.
Prior greenhouse trials with the transgenic plants, soybean transformants were routinely analyzed for the expression and presence of the transgenes using the ELISA protein detection method (see detailed description under item D and H). Only plants recovering in the selection media and having a detectable HPPD transgene protein expression were used for the herbicide tolerance analysis. A DeVries Tracker Sprayer was calibrated prior to each spraying. The chemical formulation used for Cmpd. 1 was supplemented with ammonium sulfate and methylated rape seed oil. Spray tests were conducted with a concentration, which equals to 300 grams AI per hectare (300 g AI/ha). Tolerance was evaluated 5 days after spraying. […] A rating of “3” was assigned to plants showing good tolerance, i.e. less than 10% of the leaf area from the top three trifoliate leaves showing chlorosis or only very slight bleaching.

[6] = test system: transgenic soybean T0 events; test: Additional greenhouse trials of T0 soybean events, leaf damage score 0-100 as percentiles; assay type: in vivo; settings: Cmpd. 1 300 g AI/ha, five days
Excerpt: In additional greenhouse trials, 21 to 94 independent T0 soybean events per construct containing an exemplary mutant HPPD polypeptide were sprayed with the HPPD inhibitor herbicide Cmpd. […] Five days after the application, the leaf damaged area due to the HPPD inhibitor herbicide is scored in a scale from 0 (no damage) to 100 (complete bleaching). Under those conditions, the wild-type plants were completely bleached and their damage scores were in the 95-100 range.
Table 9 presents the distribution of the HPPD inhibitor herbicide damage score data as percentile for exemplary mutant HPPD inhibitor herbicide tolerant polypeptides (SEQ ID NOs). The percentiles normalize ranks of the damage score from an individual plant in a population. […] The median is the 50th percentile. Half the values had higher damage scores; half had lower damage scores. […] The difference between the 75th and 25th percentile is called the interquartile range and a marker to quantify scattering in the population. All constructs had only one single cassette insertion in the soybean genome.
In Table 9, the constructs were ranked based on injury scores according to the 75th percentile, from smallest to highest score. All exemplary HPPD polypeptide variants are better in all percentile analyses than the prior art mutant HPPD polypeptide (WO2014/043435) corresponding to SEQ ID NO:2 in this invention. The scoring of the prior art mutant HPPD polypeptide (WO2014/043435) corresponding to SEQ ID NO:2 in this invention is listed in the bottom row of Table 9.

[7] = 150 g/ha Cmpd. 1, stage V2-V4, eight days after application
[8] = 210 g/ha isoxaflutole, stage V2-V4, eight days after application

Q: With `CS(=O)(=O)c1cc(C(F)(F)F)ccc1C(=O)c1cnoc1C1CC1` [isoxaflutole, (5-cyclopropyl-4-isoxazolyl)[2-(methylsulfonyl)-4-(trifluoromethyl)phenyl]methanone, reference compound] as the molecule, how does the leaf damage ([1]; wild-type or segregated T1 soybean plants without tolerant polypeptide, 210 g/ha isoxaflutole or 150 g/ha Cmpd. 1, eight days) read?
A: 100%

B1: SEQ ID NO:1 (protein, listed as Pseudomonas fluorescens)
chain: MADLYENPMGLMGFEFIEFASPTPGTLEPIFEIMGFTKVATHRSKNVHLYRQGEINLILNNEPNSIASYFAAEHGPSVCGMAFRVKDSQKAYNRALELGAQPIHIDTGPMELNLPAIKGIGGAPLYLIDRFGEGSSIYDIDFVYLEGVERNPVGAGLKVIDHLTHNVYRGRMVYWANFYEKLFNFREARYFDIKGEYTGLTSKAMSAPDGMIRIPLNEESSKGAGQIEEFLMQFNGEGIQHVAFLTDDLVKTWDALKKIGMRFMTAPPDTYYEMLEGRLPDHGEPVDQLQARGILLDGSSVEGDKRLLLQIFSETLMGPVFFEFIQRKGDDGFGEGNFKALFESIERDQVRRGVLTAD
modifications: 4-hydroxyphenylpyruvate dioxygenase (HPPD; Pseudomonas fluorescens) (1)..(358)
Q: Which results are given for B1?
A: character of inhibition by HPPD inhibitor herbicides (time-course) [2]: slow and tight binding inhibitor; brown pigmentation, in words ([3]; 25 μM Cmpd. 1): do not produce any brown pigmentation; brown pigmentation in the presence of the HPPD inhibitor, in words [4]: did not produce a substantial brown pigmentation

B2: SEQ ID NO:2 (protein)
chain: MADLYENPMGLMGFEFIEFASPTPGTLEPIFEIMGFTKVATHRSKNVHLYRQGEINLILNNEPNSIASYFAAEHGPSVCGMAFRVKDSQKAYNRALELGAQPIHIDTGPMELNLPAIKGIGGAPLYLIDRFGEGSSIYDIDFVYLEGVERNPVGAGLKVIDHLTHNVYRGRMVYWANFYEKLFNFREARYFDIKGEYTGLTSKAMSAPDGMIRIPLNEESSKGAGQIEEFLMQFNGEGIQHVAFLTDDLVKTWDALKKIGMRFMTAPPDTYYEMLEGRLPDHGEPVDQLQARGILLDGSSVEGDKRLLLQIFSETLMGPVFFEFIQRKGDDGFGPWNFAQLFESIERDQVRRGVLTAD
modifications: mutant HPPD polypeptide
Q: With B2 as the molecule, how does the “proportion of T0 soybean events with less than 10% leaf damage” value [5] read?
A: 54%

Q: And the “Percentage events rated “2 & 3”” value ([5]; less than 50% leaf damage)?
A: 83%

B3: SEQ ID NO: 104: mutant HPPD polypeptide: R213K M264L P268G T270E E335P G336H N337S A340V S344Q I345M (protein)
chain: MADLYENPMGLMGFEFIEFASPTPGTLEPIFEIMGFTKVATHRSKNVHLYRQGEINLILNNEPNSIASYFAAEHGPSVCGMAFRVKDSQKAYNRALELGAQPIHIDTGPMELNLPAIKGIGGAPLYLIDRFGEGSSIYDIDFVYLEGVERNPVGAGLKVIDHLTHNVYRGRMVYWANFYEKLFNFREARYFDIKGEYTGLTSKAMSAPDGMIKIPLNEESSKGAGQIEEFLMQFNGEGIQHVAFLTDDLVKTWDALKKIGMRFLTAPGDEYYEMLEGRLPDHGEPVDQLQARGILLDGSSVEGDKRLLLQIFSETLMGPVFFEFIQRKGDDGFGPHSFKVLFEQMERDQVRRGVLTAD
modifications: mutant HPPD polypeptide
notes: mutant HPPD polypeptide: R213K M264L P268G T270E E335P G336H N337S A340V S344Q I345M
Q: Which results are given for B3?
A: brown pigment formation ([3]; 25 μM Cmpd. 1, scored after 7 days): +++; brown pigment formation ([3]; 50 μM Cmpd. 1, scored after 7 days): +++; brown pigment formation ([3]; 100 μM Cmpd. 1, scored after 7 days): +++; brown pigment formation ([3]; 250 μM Cmpd. 1, scored after 7 days): ++; brown pigment formation ([3]; 500 μM Cmpd. 1, scored after 7 days): ++; leaf damage score, Interquartile range ([6]; 75th minus 25th percentile): 15.0; leaf damage score, 25th percentile ([6]; scale 0 (no damage) to 100 (complete bleaching)): 5.0; leaf damage score, 75th percentile ([6]; scale 0-100): 20.0; leaf damage score, 90th percentile ([6]; scale 0-100): 72.5; leaf damage score, Median ([6]; scale 0-100): 15.0

B4: SEQ ID NO: 16: mutant HPPD polypeptide: P268S T270S E335P G336D N337S A340V I345K (protein)
chain: MADLYENPMGLMGFEFIEFASPTPGTLEPIFEIMGFTKVATHRSKNVHLYRQGEINLILNNEPNSIASYFAAEHGPSVCGMAFRVKDSQKAYNRALELGAQPIHIDTGPMELNLPAIKGIGGAPLYLIDRFGEGSSIYDIDFVYLEGVERNPVGAGLKVIDHLTHNVYRGRMVYWANFYEKLFNFREARYFDIKGEYTGLTSKAMSAPDGMIRIPLNEESSKGAGQIEEFLMQFNGEGIQHVAFLTDDLVKTWDALKKIGMRFMTAPSDSYYEMLEGRLPDHGEPVDQLQARGILLDGSSVEGDKRLLLQIFSETLMGPVFFEFIQRKGDDGFGPDSFKVLFESKERDQVRRGVLTAD
modifications: mutant HPPD polypeptide
notes: mutant HPPD polypeptide: P268S T270S E335P G336D N337S A340V I345K
Q: What does the source list for B4?
A: Frequency in the population (events with ≤15% leaf damage) [1, 7]: 95%; Independent events with ≤15% leaf damage after spray [1, 7]: 19; Frequency in the population (events with ≤15% leaf damage) [1, 8]: 95%; Independent events with ≤15% leaf damage after spray [1, 8]: 19
